{"source": "patent US11752210B2", "about": "“Sensitizing composition using electromagnetic waves for thermal therapy of cancers, and cancer therapy using same” (JINIS CO., LTD., priority 2013, dated 2023)", "key": {"[1]": {"system": "NCI-H460-luc2 tumor xenograft", "assay": "Thermal cancer therapy with sensitizer, bioluminescence imaging of tumor size in the last week (Example 1, FIG. 12)", "assay_type": "in vivo, BALB/c athymic nude mice", "conditions": "i.v. 1 mg/kg metal ion-bound material or 20 mg/kg transferrin, 100 W 10 min, three times per week, four weeks", "experimental": "Next, the potential to treat cancer was evaluated using the metal ion-bound material as the sensitizer upon thermal therapy. A lung cancer cell line NCI-H460-luc2 ([…] Sciences) was cultured, and 5×10^6 cells were subcutaneously injected into 6 to 8-week-old female BALB/c athymic nude mice (Damul Science), and the mice were bred for about 10 days so as to grow tumorous tissue to a size of 100 mm^3 or more, yielding the tumor xenograft animal models for the evaluation of cancer treatment effects. […] After 4 hr, thermal treatment was performed three times per week for a total of four weeks using a radio-frequency hyperthermia system (EHY-2000, Oncothermia) with an energy dose of 100 W for 10 min. As such, a non-treated group and a saline-treated group were set as controls. In order to analyze the size of tumorous tissue in the last week, bioluminescence imaging was performed. For bioluminescence of a luciferase-expressing cancer cell line NCI-H460-luc2, D-luciferin (Xenogen, USA) was intraperitoneally injected at a concentration of 150 mg luciferin/kg/d into the mice, the mice were anesthetized through inhalation using a mixture of isoflurane gas and oxygen, and luminous cancer cells were subjected to overlap photographing using a Xenogen imager (IVIS 200), and analyzed using Igor Pro imaging analysis software."}, "[2]": {"system": "NCI-H460-luc2 tumor xenograft", "assay": "Thermal cancer therapy with repeated sensitizer dosing, weekly bioluminescence imaging of tumor size over four weeks (Example 1, FIG. 13)", "assay_type": "in vivo, BALB/c athymic nude mice", "conditions": "i.v. three times per week, 100 W 30 min or more", "experimental": "After 4 hr, thermal treatment for 30 min or more using a radio-frequency hyperthermia system (EHY-2000, Oncothermia) with an energy dose of 100 W was performed for a total of four weeks, and the size of tumorous tissue was monitored every week. […] In the group to which transferrin was administered, 0.1 ml of the transferrin aqueous solution having a concentration of 5 mg/ml was intravenously injected. As such, the non-treated group and the saline-treated group were used as controls.\nIn order to analyze the size of tumorous tissue, bioluminescence imaging was regularly performed at an interval of one week, and analysis was performed using Igor Pro imaging analysis software."}, "[3]": {"system": "cancer cell line NCI-H460", "assay": "In vitro temperature elevation in cancer cells cultured with transferrin, after electromagnetic waves (Test Example 4)", "assay_type": "cell-based", "conditions": "for increase in temperature before and after electromagnetic waves: cancer cell line, cultured 4 hr, washed, 100 W for 3 min", "experimental": "(§1) The temperature elevation by the metal ion-noncovalently bound apotransferrin was evaluated through in vitro cell testing. A cancer cell line […] Sciences) in which the transferrin receptor was over-expressed was cultured, and 0.1 ml of a cell suspension at a concentration of 1×10^3 cells/ml was aliquoted into a 96-well plate and cultured in a CO2 incubator at 37° C. for 12 hr. As a control, normal human cells, i.e. stromal cells, were cultured, and 0.1 ml thereof was aliquoted at a concentration of 3×10^3 cells/ml into a 96-well plate and cultured in a CO2 incubator at 37° C. for 12 hr. […] After completion of the culturing of transferrin and cells, each plate was washed with a DMEM medium, thus removing transferrin that was not introduced into the cells. Next, each plate was exposed to an energy dose of 100 W for 3 min using a radio-frequency hyperthermia system (EHY-2000, Oncothermia), and changes in the temperature were measured using a thermal imaging camera ([…], Korea Rental, Korea)."}, "[4]": {"assay": "In vivo accumulation of iron ion in normal and tumorous tissue after transferrin, ICP-MS (Test Example 6)", "parameters": "species or system BALB/c athymic nude mice; concentration of iron ion (ICP-MS): unit not given here", "conditions": "16 mg/kg i.v., after 24 hr", "experimental": "In order to evaluate the accumulation capacity of “metal ion-noncovalently bound apotransferrin” (transferrin) in tumorous tissue, the iron-bound transferrin aqueous solution was administered to the mice, after which the concentrations of the metal ions were measured in normal tissue and tumorous tissue. The iron ion-bound apotransferrin (transferrin) aqueous solution was prepared at 4 mg/ml, and 0.1 ml thereof was intravenously injected in a dose of 16 mg/kg. After 24 hr, each tissue was sampled in the same manner as in Test Example 5 and the concentration of the metal ion was measured through ICP-MS (Varian 800-MS, Palo Alto, US)."}, "[5]": {"system": "normal human cells, i.e. stromal cells", "assay": "In vitro temperature elevation in normal cells cultured with transferrin, after electromagnetic waves (Test Example 4)", "assay_type": "cell-based", "conditions": "normal cell line; all concentrations (0 to 5 mg/ml); cultured 4 hr, washed; 100 W for 3 min", "experimental": "as §1"}, "[6]": {"system": "NCI-H460-luc2 tumor xenograft", "assay": "Temperature of normal and tumorous tissue of tumor xenograft mice on application of electromagnetic waves after sensitizer (Example 1, FIGS. 9 to 11)", "assay_type": "in vivo, BALB/c athymic nude mice", "conditions": "i.v. iron sucrose 1 mg/kg or transferrin 20 mg/kg, 4 hr after administration, 100 W for 3 min", "experimental": "To this end, a lung cancer cell line NCI-H460-luc2 (Califer Life Sciences) was cultured, and 5×10^6 cells were subcutaneously injected into 6 to 8-week-old female BALB/c athymic nude mice (Damul Science), and the mice were bred for about 10 days so as to grow tumorous tissue to a size of 100 mm^3 or more, yielding the tumor xenograft animal models for the evaluation of cancer treatment effects.\nAs the sensitizing composition for thermal therapy, iron sucrose was prepared in the same manner as in Test Example 1, and 0.1 ml of the iron sucrose aqueous solution having a concentration of 0.2 mg/ml was intravenously injected into the established tumor xenograft mice so as to reach a dose of 1 mg/kg.\nAs the sensitizing composition for thermal therapy, “iron ion-bound apotransferrin” (transferrin) was prepared in the same manner as in Test Example 3, and 0.1 ml of the transferrin aqueous solution having a concentration of 5 mg/ml was intravenously injected into the established tumor xenograft mice so as to reach a dose of 20 mg/kg.\nAs the control, saline was administered. 4 hr after administration, electromagnetic waves were applied in an energy dose of 100 W for 3 min using a radio-frequency hyperthermia system (EHY-2000, Oncothermia), and the temperatures of normal tissue and tumorous tissue were measured using a thermal imaging device (E60, Korea Rental, Korea)."}}}
{"substance": "transferrin: iron ion-bound apotransferrin prepared by reacting ferric hydroxide solution with apotransferrin at 37° C. for 30 min", "values": [{"measurement": "cancer treatment effects through thermal therapy (size of tumorous tissue, bioluminescence imaging)", "setting": "[1]", "result": "excellent"}, {"measurement": "growth of cancer upon thermal treatment using electromagnetic waves (bioluminescence imaging)", "setting": "[2]; 0.1 ml of 0.2 mg/ml (iron dextran, iron sucrose) or 5 mg/ml (transferrin), four weeks", "result": "remarkably inhibited"}, {"measurement": "size of cancer after four weeks (bioluminescence imaging)", "setting": "[2]; 0.1 ml of 5 mg/ml, after four weeks", "result": "disappeared completely"}, {"measurement": "selectivity of temperature elevation depending on concentration, cancer vs normal cell line", "setting": "[3]; FIGS. 5 to 8", "result": "more selective in the cancer cell line than in the normal cell line"}, {"measurement": "increase in temperature before and after electromagnetic waves", "setting": "[3]; 1 mg/ml", "result": 11.9, "unit": "°C"}, {"measurement": "increase in temperature before and after electromagnetic waves", "setting": "[3]; 5 mg/ml", "result": 12.6, "unit": "°C"}, {"measurement": "Fold increase of iron ion vs saline", "setting": "[4]; Brain", "result": 1.26}, {"measurement": "concentration of iron ion (ICP-MS)", "setting": "[4]; Brain", "result": "28.4 ± 3.5"}, {"measurement": "Fold increase of iron ion vs saline", "setting": "[4]; Heart", "result": 2.18}, {"measurement": "concentration of iron ion (ICP-MS)", "setting": "[4]; Heart", "result": "70.1 ± 12.3"}, {"measurement": "Fold increase of iron ion vs saline", "setting": "[4]; Kidney", "result": 0.72}, {"measurement": "concentration of iron ion (ICP-MS)", "setting": "[4]; Kidney", "result": "41.2 ± 1.7"}, {"measurement": "Fold increase of iron ion vs saline", "setting": "[4]; Liver", "result": 1.27}, {"measurement": "concentration of iron ion (ICP-MS)", "setting": "[4]; Liver", "result": "94.7 ± 8.1"}, {"measurement": "Fold increase of iron ion vs saline", "setting": "[4]; Lung", "result": 1.55}, {"measurement": "concentration of iron ion (ICP-MS)", "setting": "[4]; Lung", "result": "43.9 ± 17.9"}, {"measurement": "Fold increase of iron ion vs saline", "setting": "[4]; Muscle", "result": 0.87}, {"measurement": "concentration of iron ion (ICP-MS)", "setting": "[4]; Muscle", "result": "25.7 ± 5.2"}, {"measurement": "Fold increase of iron ion vs saline", "setting": "[4]; Stomach", "result": 1.67}, {"measurement": "concentration of iron ion (ICP-MS)", "setting": "[4]; Stomach", "result": "46.4 ± 14.9"}, {"measurement": "concentration of iron ion (ICP-MS)", "setting": "[4]; Tumor", "result": "43.9 ± 9.7"}, {"measurement": "Fold increase of iron ion vs saline", "setting": "[4]; Tumor, 16 mg/kg", "result": "≥ 3.2"}, {"measurement": "Fold increase of iron ion vs saline", "setting": "[4]; Tumor, listed as Transferrin, 16 mg/kg", "result": 3.25}, {"measurement": "change in temperature before and after electromagnetic waves", "setting": "[5]", "result": "about 7 °C"}, {"measurement": "changes in the temperature before and after the application of electromagnetic waves", "setting": "[6]; normal tissue", "result": 1, "unit": "°C"}, {"measurement": "changes in the temperature before and after the application of electromagnetic waves", "setting": "[6]; tumorous tissue", "result": 2, "unit": "°C"}]}
